Results on eleven molecules are retold here after patent US20230287070A1, “NOVEL TUMOR-SPECIFIC ANTIGENS FOR ACUTE MYELOID LEUKEMIA (AML) AND USES THEREOF” (UNIVERSITE DE MONTREAL, priority 2020, published 2023).

One assay relates to T-cell clonotypes. Kind of assay: FEST assay (functional expansion of specific T cells, TCR Vβ CDR3 sequencing). It is filed as cell-based, human. Conditions: pool of TSAs^hi, healthy donor. The procedure: For FEST assays, T cells were cultured as previously described, with minor modifications (Danilova et al., 2018). Briefly, on day 0, thawed PBMCs from a healthy donor (BioIVT) were T-cell enriched using the Human Pan T-cell isolation kit (Miltenyi). T cells were resuspended at 2 × 10^6/mL in AIM V media supplemented with 50 µg/mL gentamicin (ThermoFisher Scientific) and 1% Hepes. The T cell-negative fraction was irradiated at 30 Gy, washed and resuspended at 2.0 × 10^6/mL in AIM V media supplemented with 50 µg/mL gentamicin and 1% Hepes. One ml per well of both T cells and irradiated T cell-depleted cells were added to a 12-well plate, along with either one of the 3 TSA^hi pools (5 TSAs^hi per pool, 1 µM final concentration for each TSA) or without peptide. Cells were cultured for 10 days at 37° C., 5% CO2. On day 3 and 7, half the culture media was replaced with fresh culture media containing 100 IU/mL IL-2, 50 ng/mL IL-7, and 50 ng/mL IL-15 (day 3) and 200 IU/mL IL-2, 50 ng/mL IL-7, and 50 ng/mL IL-15 (day 7). On day 10, cells were harvested and CD8^+ cells were further isolated using the Human CD8^+ T Cell Isolation Kit (Miltenyi). As a negative control, CD8^+ T cells were also isolated from freshly thawed uncultured PBMCs of the same healthy donor. DNA was extracted from CD8^+ T cells using a Qiagen DNA blood mini kit (Qiagen). […]

The target in assay [1] is Pool 2 of TSAs^hi: … … … … …. Kind of assay: cell-based or functional assay.
The target of assay [2] is Pool 3 of TSAs^hi: LRSQILSY … … … …. Kind of assay: cell-based or functional assay.
Assay [3] deals with Pool 1 of TSAs^hi: … … … IASPIALL …. Put plainly: cell-based or functional assay.

With “3 (GARQQIHSW; listed as Homo sapiens) [compound 3]”, the “Significantly expanded clonotype (SEQ ID NO:)” value in the assay with T-cell clonotypes is recorded as “CARSFGGFF (213)”.

Turning to CASSYVLNTEAFF (TCR), the FEST assay: clonotype expansion, odds ratio (FDR 0.010284) in assay [1] was determined as 10.8.

With CASSADSSLGGYTF (TCR), in assay [2], the FEST assay: clonotype expansion, odds ratio (FDR 1.13 E-10) came to 45.4.

For CASSEYRALNTEAFF (TCR), the FEST assay: clonotype expansion, odds ratio (FDR 4.67 E-30) in assay [1] came to 59.8.

For the molecule CATSRSGDSNQPQHF (TCR), in assay [1], the FEST assay: clonotype expansion, odds ratio (FDR 0.008031) amounted to 8.21.

Regarding CASSRTGENTEAFF (TCR), the FEST assay: clonotype expansion, odds ratio (FDR 0.003813) in assay [1] came out at 3.35.

With CASSDRTGGSSNEKLFF (TCR), the FEST assay: clonotype expansion, odds ratio (FDR 0.008031) in assay [1] was 8.21.

As for CASSSTDRQHYGYTF (TCR), the FEST assay: clonotype expansion, odds ratio (FDR 0.007052) in assay [1] amounted to 3.76.

With CASTVVAGNSSPLHF (TCR), the FEST assay: clonotype expansion, odds ratio (FDR 1.2 E-07) in assay [3] stood at 18.8.

Turning to CASSVDAGGNYEQYF (TCR), the FEST assay: clonotype expansion, odds ratio (FDR 0.000665) in assay [3] worked out at 12.3.

In the case of CASSESGTGGQPQHF (TCR), the FEST assay: clonotype expansion, odds ratio (FDR 1.14 E-08) in assay [1] stood at 3.46.
